Data as given in patent US20210363269A1 (ALX ONCOLOGY, published 2021).
Residue numbers refer to the chain shown, from its start. Each block holds one binder with its values, some of them ahead of it.

Experiments:
[1] = target: T1, human SIRP-α v1 (human, UniProt P78324 31-149); assay: SPR
T1 construct: also called Human v1; Human V1
Summary of the method: (§1)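 Apparent association and dissociation rate constants, and KD as kd/ka, were obtained by global fitting of double-referenced data to a simple Langmuir model. Measurements used a ProteOn XPR36 biosensor at 25° C in PBS pH 7.4 with 0.01% Tween-20, with SIRP analytes injected in one-shot kinetic mode at nominal concentrations from A280 absorbance. The purified antibodies were either amine-coupled to a GLC chip or held on an NLC chip by biotinylated Protein A.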

[2] = target: T2, human SIRP-α v2 (human); assay: SPR
T2 construct: also called Human v2; Human V2
Summary of the method: as §1

[3] = target: T3, mouse 129 SIRP-α (mouse (129 strain), UniProt P97797 32-150); assay: SPR Koff +/-
T3 construct: also called m129
T3 chain: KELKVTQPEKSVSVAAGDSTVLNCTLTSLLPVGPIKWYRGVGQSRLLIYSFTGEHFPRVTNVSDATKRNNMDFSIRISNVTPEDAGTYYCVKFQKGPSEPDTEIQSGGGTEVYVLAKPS
Summary of the method: as §1

T1 sequence (P78324 31-149 limits assumed): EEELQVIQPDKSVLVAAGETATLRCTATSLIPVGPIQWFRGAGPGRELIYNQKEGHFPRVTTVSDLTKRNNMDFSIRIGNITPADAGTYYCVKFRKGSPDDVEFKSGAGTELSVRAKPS

Kd [1]: < 0.001 nM | Kd [2]: 0.00487 nM
B1: antibody 201 (antibody, V domains shown)
VH: DVQLVESGGAVVRPGETLRLSCTASGFTFSSYAMSWVRQAPGKGLEWVSGISASGSDTYYADSVKGRSTISRDNSKNTLYLRMSSLTAEDTAVYYCARETWNHLFDYWGLGTLVTVSS
VL: ALTQPASVSANPGETVKITCSGGGTSSYYGWYQQKSPGSAPVTLIHSDDKRPSDIPSRFSGSASGSTATLTITGVQVEDEAVYYCGGYDYTTYVNTFGAGTTLTVL
notes: also called S201

Kd [1]: 0.137 nM | Kd [2]: 0.662 nM
B2: antibody 175 (antibody, V domains shown)
VH: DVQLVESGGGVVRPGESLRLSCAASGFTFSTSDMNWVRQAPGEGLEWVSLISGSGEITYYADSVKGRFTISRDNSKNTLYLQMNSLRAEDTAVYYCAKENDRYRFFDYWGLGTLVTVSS
VL: ETVLTQSPGILSLSPGERATLTCRASQSVYTYLAWYQEKPGQAPRLLIYGASSRAAGIPDRFSGSGSGTEFTLTISSLQSEDFAVYYCQQYYDRPPLTFGGGTKVEIK
notes: also called S175

Kd [1]: 0.31 nM | Kd [2]: 1.9 nM
B3: antibody 189 (antibody, V domains shown)
VH: DVQLVESGGGVVRPGESLRLSCAASGFTFSSSDMNWVRQAPGEGLEWVSLISGSGEITYYADSVKGRFTISRDNSKNTLYLQMNSLRAEDTAIYYCAKENNMYRFFDYWGLGTLVTVSS
VL: B2 VL with I10T, T22S, E38Q, A43P, Y49H, G50A, S52R, S53N
notes: also called S189

Kd [1]: 0.123 nM | Kd [2]: 0.276 nM
B4: antibody 218 (antibody, V domains shown)
VH: DVQLVESGGGVVRPGESLTLSCTASGFTFTSSTMNWVRQAPGEGLDWVSSISTSGVITYYADSVKGRATISRDNSKNTLYLRLFSLRADDTAIYYCATDTFDHWGPGTLVTVSS
VL: ALTQPASVSANPGETVKITCFGSSGNYGWFQQKSPGSAPVTVIHYNNKRPSDIPSRFSGSKSGSTGTLTITGVRAEDEAVYFCGAWETGSATFGAGTTLTVL
notes: also called AB218; S218

binding result [3]: no binding
B5: antibody 163 (antibody, V domains shown)
VH: DVQLVESGGGLVRPGESLRLSCAASGFTFTNYAVTWVRQAPGEGLEWVSLISVTGTTYYADSVKGRFTISRDNSKSTLYLQMNGLRAEDTAVYYCAKVTWKNVFDYWGLGTLVTVSS
VL: EIVLTQSPGTLSVSPGERATFSCRASQTVGSKLAWYQQKPGQAPRLLIYDANTRATGIPARFSGSGSGTEFTLTISSLQSEDFAVYYCQQHTDWPPYTFGGGTKVEIK
notes: also called S163

binding result [3]: no binding
B6: antibody 164 (antibody, V domains shown)
VH: B5 VH
VL: B5 VL with G66R
notes: also called S164

binding result [3]: no binding
B7: antibody 162 (antibody, V domains shown)
VH: B5 VH with G84S
VL: B5 VL
notes: also called S162

Kd [1]: < 0.001 nM | Kd [2]: < 0.001 nM
B8: antibody 73 (antibody, V domains shown)
VH: DVQLVESGGGVVRPGESLRLSCEASGFTFSSNAMSWARQAPGKGLEWVAGISSGSDTYYGDSVKGRLTISRDNSKNILYLQMNSLTAEDTAVYYCARETWNHLFDYWGLGTLVTVSS
VL: ALTQPASVSANPGETVKITCSGGIYSSYYYAWYQQKSPGSAPVTLIYSDDKRPSNIPSRFSGSASGSTATLTITGVRAEDEAVYFCGGYDQSSYTNPFGAGTTLTVL
notes: also called S73

Kd [1]: 0.162 nM | Kd [2]: 0.0767 nM
B9: antibody 3 (antibody, V domains shown)
VH: AVTLDESGGGLQTPGGALSLVCKASGFIFSDYGMNWVRQAPGKGLEFVAQITSGSRTYYGAAVKGRATISRDNRQSTVKLQLNNLRAEDTGIYFCARDFGSGVGSIDAWGNGTEVIVSS
VL: ALTQPASVSANLGGTVKITCSGSRGRYGWYQQRSPGSAPVTVIYRDNQRPSNIPSRFSSSTSGSTSTLTITGVQADDESVYFCGSYDGSIDIFGAGTTLTVL
notes: also called AB3; S3

binding result [3]: no binding | Kd [1]: 0.426 nM | Kd [2]: 1.86 nM
B10: antibody 132 (antibody, V domains shown)
VH: DVQLVESGGGVVRPGESLRLSCAASGFSFRSYAMNWVRQAPGEGLEWVSRINSGGGGTDYADSVKGRFTISRDNSKNTLYLQMNSLRAEDTAVYYCAKQYDWNSFFDYWGLGALVTVSS
VL: ETVLTQSPATLSVSPGERATLSCRASQTVGSKLAWHQQKPGQAPRLLIYDASNRATGIPDRFSGSGSGTDFTLTISSPQTEDSAVYYCQQYYYWPPYRFGGGTKVEIK
notes: also called AB132; S132

binding result [3]: no binding
B11: antibody 191 (antibody, V domains shown)
VH: B10 VH with R30S, D62E, K76E, S104G
VL: B10 VL with S52T, S77G, P78L
notes: also called S191

binding result [3]: no binding
B12: antibody 198 (antibody, V domains shown)
VH: B10 VH with R30S, Y32H, D62E, K76E, S104G
VL: B10 VL with S52T, P78L
notes: also called S198

binding result [3]: no binding | Kd [1]: 0.157 nM | Kd [2]: 0.0501 nM
B13: antibody 121 (antibody, V domains shown)
VH: VQLVESGGGVVQPGGSLRLSCAASGFSFSNFAMTWVRQAPGEGLEWVSTIGSGDTYYADSVKGRFTISRDNSKNTLYLQMNSLRAEDTAVYYCAKDSTVSWSGDFFDYWGLGTLVTVSS
VL: EIVLTQSPATLSVSPGERATFSCRASQNVKNDLAWYQQRPGQAPRLLIYAARIRETGIPERFSGSGSGTEFTLTITSLQSEDFAVYYCQQYYDWPPFTFGGGTKVEIK
notes: also called S121

binding result [3]: no binding | Kd [1]: 0.214 nM | Kd [2]: 0.0856 nM
B14: antibody 120 (antibody, V domains shown)
VH: B13 VH with L114R
VL: B13 VL
notes: also called S120

Kd [1]: < 0.001 nM | Kd [2]: < 0.001 nM
B15: antibody 202 (antibody, V domains shown)
VH: DVQLVESGGGVVRPGESLRLSCAASGFTFSSYAMSWVRQAPGKGLEWLAGISAGGSDTYYIDSVKGRFTISRDNSKNSLYLQMNSLTAEDTAVYYCARETWNHLFDYWGLGTLVTVSS
VL: ALTQPASVSANPGETVKITCSGGGYYSTYYGWYQQRSPGSAPVTVIHSDDKRPSDIPSRFSGSASGSAATLTITGVRVEDEAVYYCAGYDGRTYLNTFGAGTTLTVL
notes: also called S202

Kd [1]: < 0.001 nM | Kd [2]: < 0.001 nM
B16: antibody 16 (antibody, V domains shown)
VH: DVQLVESGGGVVRPGESLRLSCAVSGFRFSSYAMSWVRQAPGKGLEWVSGISSGGDTYYVDSVKGRFTISRDNSKNTLYLQVNSLTAEDTAIYYCARETWNHLFDYWGLGTLVTVSS
VL: ALTQPASVSANLGETVKITCSGGDSSSHYYGWYQQKSPGSAPVTVIYSDDERPSDIPSRFSGSASGSTATLTITGVRVEDEAIYYCGAYDGSTYANTFGAGTTLTVL
notes: also called S16
